{"source": "paper PMC3534379", "key": {"[1]": {"biological_target": "human CD4 C-terminally fused to the C-terminal fragment of click beetle green (UniProt P01730)"}, "[2]": {"biological_target": "human CD4 C-terminally fused to the C-terminal fragment of click beetle green (UniProt P01730)", "assay": "click beetle luciferase complementation assay in living 293T cells", "conditions": "read off a plot"}, "[3]": {"biological_target": "ß-TrCP N-terminally fused to the C-terminal fragment of click beetle green (UniProt Q9Y297)", "sequence (Q9Y297 whole entry, the tested form may be a part)": "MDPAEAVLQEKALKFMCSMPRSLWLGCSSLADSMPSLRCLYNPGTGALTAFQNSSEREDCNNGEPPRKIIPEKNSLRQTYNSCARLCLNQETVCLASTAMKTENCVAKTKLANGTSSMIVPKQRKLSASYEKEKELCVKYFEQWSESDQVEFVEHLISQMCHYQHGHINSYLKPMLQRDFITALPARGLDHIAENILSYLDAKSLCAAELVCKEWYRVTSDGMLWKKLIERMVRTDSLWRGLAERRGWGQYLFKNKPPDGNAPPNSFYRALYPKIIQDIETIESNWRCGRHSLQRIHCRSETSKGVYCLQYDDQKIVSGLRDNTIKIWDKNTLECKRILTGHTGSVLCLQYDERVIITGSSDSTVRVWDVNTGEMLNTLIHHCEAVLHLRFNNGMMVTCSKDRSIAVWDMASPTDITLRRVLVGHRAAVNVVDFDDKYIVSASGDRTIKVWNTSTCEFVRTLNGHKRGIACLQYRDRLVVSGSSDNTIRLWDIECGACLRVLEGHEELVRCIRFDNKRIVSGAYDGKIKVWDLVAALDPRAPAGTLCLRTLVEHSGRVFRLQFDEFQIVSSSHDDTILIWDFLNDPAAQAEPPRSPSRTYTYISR", "assay": "click beetle luciferase complementation assay in living 293T cells", "conditions": "36 h after transfection, equal amounts of plasmids, D-Luciferin added, read off a plot"}, "[4]": {"conditions": "+ ß-TrCPΔF cotransfected (grey bars), parent: est. 20"}, "[5]": {"conditions": "without ß-TrCPΔF (coloured bars), parent: est. 8"}, "[6]": {"conditions": "+ ß-TrCPΔF cotransfected (grey bars), parent: est. 14"}, "[7]": {"conditions": "without ß-TrCPΔF (coloured bars), parent: est. 13"}}, "data": [{"substance": "HIV-1 group N DJO0131 Vpu C-terminally fused to the N-terminal fragment of click beetle green (natural protein)", "values": [{"measurement": "reduction in CD4 cell surface expression (293T cells, flow cytometry)", "setting": "[1]", "value": 2.8, "unit": "fold"}]}, {"substance": "HIV-1 group M NL4-3 Vpu C-terminally fused to the N-terminal fragment of click beetle green G53D", "values": [{"measurement": "response (RLU/s x 1.000)", "setting": "[2]; [4]", "value": 22}, {"measurement": "response (RLU/s x 1.000)", "setting": "[2]; [5]", "value": 30}, {"measurement": "response (RLU/s x 1.000)", "setting": "[3]; parent: est. 6.2", "value": 2.2}]}, {"substance": "HIV-1 group N YBF30 Vpu C-terminally fused to the N-terminal fragment of click beetle green (from UniProt O91085) G51D", "values": [{"measurement": "response (RLU/s x 1.000)", "setting": "[2]; [6]", "value": 12}, {"measurement": "response (RLU/s x 1.000)", "setting": "[2]; [7]", "value": 18}, {"measurement": "response (RLU/s x 1.000)", "setting": "[3]; parent: est. 4.7", "value": 1.3}]}, {"substance": "HIV-1 group N YBF30 Vpu C-terminally fused to the N-terminal fragment of click beetle green (from UniProt O91085) S52A; S56A", "values": [{"measurement": "response (RLU/s x 1.000)", "setting": "[2]; [6]", "value": 19}, {"measurement": "response (RLU/s x 1.000)", "setting": "[2]; [7]", "value": 17}, {"measurement": "response (RLU/s x 1.000)", "setting": "[3]; parent: est. 4.7", "value": 0.9}]}, {"substance": "HIV-1 group M NL4-3 Vpu C-terminally fused to the N-terminal fragment of click beetle green S52A; S56A", "values": [{"measurement": "response (RLU/s x 1.000)", "setting": "[2]; [4]", "value": 24}, {"measurement": "response (RLU/s x 1.000)", "setting": "[2]; [5]", "value": 29}, {"measurement": "response (RLU/s x 1.000)", "setting": "[3]; parent: est. 6.2", "value": 2.2}]}]}
